Data reported in patent US20240228562A1 (Pieris, published 2024).

T1: huWISP-2 (human, UniProt O76076 24-250, limits assumed)
T1 construct: also called human WISP-2 (CCN5)
T1 sequence (looked up): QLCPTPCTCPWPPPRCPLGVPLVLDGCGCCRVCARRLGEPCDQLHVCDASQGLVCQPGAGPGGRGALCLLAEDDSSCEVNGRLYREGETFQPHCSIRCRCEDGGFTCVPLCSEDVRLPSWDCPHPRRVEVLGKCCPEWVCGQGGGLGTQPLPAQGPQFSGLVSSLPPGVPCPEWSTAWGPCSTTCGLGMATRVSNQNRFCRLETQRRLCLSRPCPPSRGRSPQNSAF

T2: huCYR61 (human, UniProt O00622 25-381, limits assumed)
T2 construct: also called human CYR61 (CCN1)
T2 sequence (looked up): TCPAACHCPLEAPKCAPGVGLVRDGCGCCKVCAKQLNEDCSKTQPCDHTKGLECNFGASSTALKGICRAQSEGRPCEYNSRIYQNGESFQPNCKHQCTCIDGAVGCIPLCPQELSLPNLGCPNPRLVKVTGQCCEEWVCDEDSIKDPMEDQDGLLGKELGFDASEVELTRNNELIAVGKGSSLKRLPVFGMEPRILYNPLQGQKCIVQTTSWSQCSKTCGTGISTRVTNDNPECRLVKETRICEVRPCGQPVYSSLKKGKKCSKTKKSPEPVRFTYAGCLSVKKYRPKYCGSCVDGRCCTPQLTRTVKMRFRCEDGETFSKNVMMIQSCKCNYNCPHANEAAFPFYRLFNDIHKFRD

T3: recombinant human CTGF protein (R&D Systems, SEQ ID NO: 79) (human, UniProt P29279 27-349)
T3 construct: Bought; also called human CTGF/CNN2; huCTGF
T3 sequence: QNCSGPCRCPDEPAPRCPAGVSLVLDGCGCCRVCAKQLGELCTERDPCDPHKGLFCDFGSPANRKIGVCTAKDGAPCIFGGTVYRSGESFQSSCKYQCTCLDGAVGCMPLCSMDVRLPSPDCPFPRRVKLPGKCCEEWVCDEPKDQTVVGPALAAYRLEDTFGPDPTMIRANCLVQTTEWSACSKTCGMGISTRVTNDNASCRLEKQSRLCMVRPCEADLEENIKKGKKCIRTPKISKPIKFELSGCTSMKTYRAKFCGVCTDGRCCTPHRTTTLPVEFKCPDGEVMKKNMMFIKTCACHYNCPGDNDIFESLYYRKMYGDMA

T4: mouse CTGF (Abbexa) (mouse, UniProt P29268 26-348, limits assumed)
T4 construct: also called Murine CTGF; mCTGF
T4 sequence (looked up): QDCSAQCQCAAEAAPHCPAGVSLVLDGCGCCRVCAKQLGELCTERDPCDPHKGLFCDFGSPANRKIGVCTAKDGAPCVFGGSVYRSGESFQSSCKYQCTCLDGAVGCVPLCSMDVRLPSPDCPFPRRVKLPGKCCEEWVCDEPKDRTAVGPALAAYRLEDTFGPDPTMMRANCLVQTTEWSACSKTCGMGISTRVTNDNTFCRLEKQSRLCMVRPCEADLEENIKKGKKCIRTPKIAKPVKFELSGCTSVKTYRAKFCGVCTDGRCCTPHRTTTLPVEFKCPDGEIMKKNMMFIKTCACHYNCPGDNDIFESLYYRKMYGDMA


Assays:
huWISP-2 = target: T1, huWISP-2; assay: ELISA, coated CCN protein
How it was run: (§1)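 Plates coated with each CCN protein at 1 μg/ml overnight at 4 °C, blocked with PBS-T/BSA, then serially diluted muteins from 1000 nM bound 1 h at RT. Detection with HRP anti-NGAL or anti-Strep-Tag and fluorogenic substrate; cross-reactivity judged when the CTGF signal neared saturation.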

huCYR61 = target: T2, huCYR61; assay: ELISA, coated CCN protein
How it was run: as §1

[1] = target: T5, muCTGF domains 1 and 2 with human Fc tag (murine); assay: ELISA, coated target
T5 construct: Made by Evitria; also called Murine CTGF1-2-huFc

[2] = target: T6, huCTGF domains 1 and 2 with human Fc tag (human); assay: ELISA, coated target
T6 construct: Made by Evitria; also called Human CTGF1-2-huFc

[3] = target: T3, recombinant human CTGF protein (R&D …); assay: ELISA, coated target
[4] = target: T7, murine CTGF (Biozol, SEQ ID NO: 80) (murine); assay: ELISA, coated target
T7 construct: Bought; also called muCTGF

mouse CTGF (Abbexa) = target: T4, mouse CTGF (Abbexa); assay: SPR (Biacore)
How it was run: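 Lipocalin muteins injected at 25 °C over CTGF either Fc-tagged and captured by anti-human IgG-Fc (0.25-2.5 μg/mL in HBS-EP+, 180 s) or amine-coupled directly to a CM5 chip. Association 180 s, dissociation 900-3600 s, flow 30 μL/min.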

T5 sequence (chain, as listed by the source limits assumed): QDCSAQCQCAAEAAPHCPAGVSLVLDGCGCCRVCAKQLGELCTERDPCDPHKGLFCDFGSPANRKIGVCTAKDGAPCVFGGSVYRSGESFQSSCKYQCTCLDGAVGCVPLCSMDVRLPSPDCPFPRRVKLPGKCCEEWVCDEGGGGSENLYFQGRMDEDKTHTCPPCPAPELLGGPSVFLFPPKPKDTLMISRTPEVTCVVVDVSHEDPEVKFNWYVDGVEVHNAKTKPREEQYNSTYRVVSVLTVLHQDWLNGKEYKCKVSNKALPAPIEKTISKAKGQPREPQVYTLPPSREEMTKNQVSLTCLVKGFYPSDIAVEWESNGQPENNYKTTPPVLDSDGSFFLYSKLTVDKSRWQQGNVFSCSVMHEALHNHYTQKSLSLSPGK

Binder | EC50 [3] | EC50 [1] | EC50 [2] | EC50 [4] | Kd (mouse CTGF (Abbexa)) | koff (mouse CTGF (Abbexa)) | kon (mouse CTGF (Abbexa)) | binding result (huWISP-2) | binding result (huCYR61) | binding result [1] | binding result [2] | binding result [4] | binding result (mouse CTGF (Abbexa))
lipocalin mutein of SEQ ID NO: 3 (designed binder, Parent hNGAL mutein; also called hNGAL mutein) QDSTSDLIPAPPLSKVPLQQNFQDNQFHGKWYVVGRAGNNRLREDKDPPKMWATIYELKEDKSYNVTHVHFMTKKCRYIIDTFVPGSQPGEFTLGAIKSGPGMTSPLVRIVSTNYNQHAMVFFKWVNQNREWFTITLYGRTKELTSELKENFIRFSKSLGLPENHIVFPVPIDQCIDGSAWSHPQFEK | 6.9 nM | – | – | – | – | – | – | no binding (tested: dilutions starting at 1000 nM) | no binding (tested: dilutions starting at 1000 nM) | no binding (tested: dilutions starting at 1000 nM) | no binding (tested: dilutions starting at 1000 nM) | – | –
lipocalin mutein of SEQ ID NO: 25 (designed binder, Parent hNGAL mutein; also called hNGAL mutein) QDSTSDLIPAPPLSKVPLQQNFQDNQFHGKWYVVGMAGNFRLREDKDPSKMGATIYELKEDKSYNVTQVQFDDKKCLYVIETFVPGSQPGEFTLGAIKSFPGFTSQLVRVVSTNYNQHAMVFFKKVYQNREVFWITLYGRTKELTSELKENFIRFSKSLGLPENHIVFPVPIDQCIDGSAWSHPQFEK | 11 nM | 14 nM | 8.8 nM | – | – | – | – | no binding (tested: dilutions starting at 1000 nM) | no binding (tested: dilutions starting at 1000 nM) | – | – | no binding (tested: dilutions starting at 1000 nM) | no binding (tested: typically 0.43-2000 nM)
lipocalin mutein of SEQ ID NO: 9 (designed binder, Parent hNGAL mutein; also called hNGAL mutein) QDSTSDLIPAPPLSKVPLQQNFQDNQFHGKWYVVGLAGNKILRIDKQPAKMFATIYELKEDKSYDVTSVRFEARSCSYTIKTFVPGSQPGEFTAGNIKSAPGQTSTLVRVVSTNYNQHAMVFFKHVSQNRETFVITLYGRTKELTSELKENFIRFSKSLGLPENHIVFPVPIDQCIDGSAWSHPQFEK | 14 nM | 5.8 nM | 8 nM | 11 nM | 6.26 nM | 0.000832 s⁻¹ | 133000 M⁻¹ s⁻¹ | no binding (tested: dilutions starting at 1000 nM) | no binding (tested: dilutions starting at 1000 nM) | – | – | – | –
lipocalin mutein of SEQ ID NO: 29 (designed binder, Parent hNGAL mutein; also called hNGAL mutein) QDSTSDLIPAPPLSKVPLQQNFQDNQFHGKWYVVGWAGNIKLREDKDPFKMSATIYELKEDKSYNVTEVVFEQKKCHYIIKTFVPGSQPGEFTLGDIKSPPGETSSLVRVVSTNYNQHAMVFFKKVFQNREFFWITLYGRTKELTSELKENFIRFSKSLGLPENHIVFPVPIDQCIDGSAWSHPQFEK | 11 nM | 17 nM | 8.4 nM | – | – | – | – | no binding (tested: dilutions starting at 1000 nM) | no binding (tested: dilutions starting at 1000 nM) | – | – | no binding (tested: dilutions starting at 1000 nM) | no binding (tested: typically 0.43-2000 nM)

The next lines start with results.

EC50 [3] | EC50 [1] | EC50 [2] | EC50 [4] | Kd (mouse CTGF (Abbexa)) | koff (mouse CTGF (Abbexa)) | kon (mouse CTGF (Abbexa)) | Binder | binding result (huWISP-2) | binding result (huCYR61) | binding result [1] | binding result [2] | binding result [4] | binding result (mouse CTGF (Abbexa))
– | – | – | – | 0.349 nM | 4.51e-05 s⁻¹ | 129000 M⁻¹ s⁻¹ | lipocalin mutein of SEQ ID NO: 15 (designed binder, also called hNGAL mutein; not shown: C-terminal His-tag) QDSTSDLIPAPPLSKVPLQQNFQDNQFQGKWYVVGLAGNAILREDKQPAKMFATIYELKEDKSYDVTSVRFEAKSCKYTIKTFVPGSQPGEFTAGYIKSAPGQTSTLVRVVSTNYNQHAMVFFKHVTQNREIFVITLYGRTKELTSELKENFIRFSKSLGLPENHIVFPVPIDQCIDG | no binding (tested: dilutions starting at 1000 nM) | no binding (tested: dilutions starting at 1000 nM) | – | – | – | –
34 nM | 14 nM | 17 nM | 29 nM | – | – | – | lipocalin mutein of SEQ ID NO: 7 (designed binder, Parent hNGAL mutein; also called hNGAL mutein) QDSTSDLIPAPPLSKVPLQQNFQDNQFHGKWYVVGLAGNYGLRTDKRPSKMFATIYELKEDKSYDVTSVRFEQERCHYTIRTFVPGSQPGEFTTGSIKSRPGQTSSLVRVVSTNYNQHAMVFFKSVIQNREYFAITLYGRTKELTSELKENFIRFSKSLGLPENHIVFPVPIDQCIDGSAWSHPQFEK | no binding (tested: dilutions starting at 1000 nM) | no binding (tested: dilutions starting at 1000 nM) | – | – | – | –
